# Assay results published in the supplement of paper PMC12042874.
# ± gives the uncertainty stated by the source.
# Assay: amyloid nucleation score (Sup35N fusion, yeast selection) (log enrichment); library NNK1; higher = more nucleation; inactive = no reads after selection
# Outline: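 Plasmid inserts were Illumina-sequenced at input and output from psi-negative yeast expressing Sup35N fused to peptides of 20 random codons. The yeast were induced with 100 μM copper sulfate for 24 hours and grown 7 days at 30°C on medium lacking adenine and uracil, and sequences with under 100 input reads were excluded. Nucleation score is the DiMSum log enrichment of output over input reads, centred on the mode score of non-aggregating sequences.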
row,Substance,amyloid nucleation score
1,NHMFPMVVTYLWSCFIIGSV,2.42 ± 0.37
2,MQKYPIRGRR,1.64 ± 0.23
3,FRTRGFLHSKVLVRLQYWIK,0.494 ± 0.5
4,SQHDRKYHYTIGYAQELDGL,-0.235 ± 0.43
5,YMNNRLRWNRRHPYLSCFMS,1.1 ± 0.94
6,PSALFFSVTLKVHINLAISS,0.431 ± 0.53
7,VSSGRRIGCVSPGSGEAREW,0.376 ± 0.61
8,FLCVF,0.097 ± 0.88
9,NSFRWDLTLLLWARINVDSF,1.49 ± 0.7
10,QFSLPLCGYKRRHNGSFAEM,-1.14 ± 2.1
11,GGRNWFYRALR,0.362 ± 0.63
12,KKKYTEHISFTALHKLFTRR,0.189 ± 0.92
13,WYQLVVVEQGSTLYS,0.341 ± 0.68
14,IEDTGIYRSVTFTVAMTYTV,-0.373 ± 0.38
15,QVFGFYTMEKVYHVGGIASV,-0.296 ± 0.3
16,VTACGYRMRRCRCFCECNGT,0.72 ± 0.57
17,TTIAIRVLFQIVMVVSESRS,-0.247 ± 0.24
18,EAARMWSFNGNLSVFWIT,5.72 ± 0.097
19,DHASGLVLLCLVWLGLMSLK,0.501 ± 0.43
20,MSLYTDNWGNKGRTSLNYSS,0.455 ± 0.51
21,HKSIMAYRN,0.677 ± 0.68
22,KYHRFFAG,-1.02 ± 1.8

row,Substance,amyloid nucleation score
1,ATMCVTLIWCYSSKQRMYKK,1.08 ± 0.15
2,IHMLIVLSF,-0.103 ± 1.4
3,PRHFVKVIEAPASLLIVYHG,-1.02 ± 1.8
4,YDLRNICTSTLMSHVNRFYV,-1.22 ± 0.83
5,HLCFIADGQLRTVVVELFPI,0.576 ± 0.42
6,LDSTLSLQ,0.071 ± 0.3
7,CANGLLRDLVQAI,0.547 ± 0.61
8,VIHYCYSCFSADQAGLLFTR,2.22 ± 0.14
9,YVSTIN,0.629 ± 0.42
10,GVLSICGML,-0.401 ± 0.31
11,PNCDAYWVNWFKLRCLSHLF,-0.489 ± 1.7
12,GKEPVACRIPNKA,1.17 ± 0.3
13,RMVGYVRGMAFRRSVSRRIG,0.311 ± 0.68
14,MSSVLFYYGFNTFEYSDMYM,-0.15 ± 0.33
15,PSGVCSIVVFKCLRRVMSSL,0.353 ± 0.35
16,SVSEGRVGLYNCG,0.449 ± 0.89
17,CRTHDKCKDSGHSRLNGYSG,-0.299 ± 0.51
18,LWFGSHLTNCVKYDLKGESV,1.41 ± 0.47
19,KCTCSVKCSCIFCFIICCVC,-1.2 ± 1.7
20,DGLKFGFEINPAVRQ,1.11 ± 0.48
21,GLMNSRYMYVVNMS,0.758 ± 0.4
22,GSDQLSTT,-0.338 ± 0.43

row,Substance,amyloid nucleation score
1,NFIFVR,0.706 ± 0.53
2,TKWLLP,0.504 ± 0.57
3,NFIQID,inactive
4,FLGLLVPFFNWRDKKRKYSG,0.012 ± 0.79
5,LQGCGYYKFGITEEWH,0.415 ± 0.78
6,LGRGTKMLLKVYTVRTSNYR,0.592 ± 0.58
7,DWMLISE,-0.084 ± 0.28
8,GHGYCLSWFNGNDPRGTTTT,1.1 ± 0.7
9,FGLIATTETRAVSKMNVFDN,1.56 ± 0.49
10,MGSVVHRKVEVHGRFKCGAT,0.477 ± 0.93
11,WLISLFRDDDRFNKVSKRAA,-0.3 ± 0.38
12,AMGARMFRNYRTACAHLLQW,0.019 ± 1
13,QLPCDRISSDALYRMWGLV,-1.41 ± 0.91
14,DYYLATCYLPYALNCLAFLN,-1.18 ± 0.97
15,AMWLFACGLWLLLPRYIGRC,-0.485 ± 1.2
16,LKQTPMLGDMGWGHRCLGKT,-0.262 ± 0.73
17,NDHNNLWVNFVGT,0.575 ± 0.6
18,YCTCRLVKFEVDW,inactive
19,TSKERSLCSKDVT,0.393 ± 0.55
20,LVSMRMAFCPWLVRKGIPL,0.206 ± 1.6
21,FNIYSQMYIW,5.32 ± 0.066
22,MVTEDEERMANLSWHESGAY,-1.07 ± 0.74

row,Substance,amyloid nucleation score
1,YNRIIYYCGVM,0.782 ± 0.97
2,NHLVG,0.526 ± 1.4
3,TRCINVYHPLCI,-0.875 ± 0.36
4,LAREAGR,inactive
5,GTCPSRPVSV,-0.139 ± 0.47
6,NRSRWPIHGFLIANKSPLQF,0.486 ± 0.38
7,AFSTG,inactive
8,FVRIRYITGRITSDRRREFC,0.591 ± 1
9,IKALMIC,inactive
10,YLLPEPKQCVSPE,0.625 ± 0.5
11,TLMGQWGWFSSVAYNNAGIV,-1.36 ± 0.86
12,HAMISWDISNVCVYWHMCPW,0.12 ± 0.33
13,STCLGGERSYRYVMWLVLVV,0.148 ± 0.42
14,RSGLCFMCSFEKSVSSR,0.255 ± 0.3
15,MWSGDDCSFNDFCYVCDFCK,-0.1 ± 0.32
16,LRYCNMHHRHDSYGLSSYSY,2.21 ± 0.11
17,AVHICYNYRSYSI,0.5 ± 0.95
18,SVCPKINLLNFVWNYYAPTA,6.869 ± 0.064
19,TRNLMPSRSFG,2.08 ± 0.28
20,GVSKCQDEYSGLGNRNYM,-1.28 ± 0.59
